The values that follow are results of earlier work, collected in PMC3212873.

Where “and” joins values, the source holds several entries; their conditions need not be identical. Equal values may be shown once.

Data set [1] has as its target T1, Cys32 (UniProt position 33, FWAEWCGPCKM). Briefly: NMR. As to conditions: reduced Trx-(SH)2, no protein ligand.
Data set [2] concerns the target T1, Cys32. The data set is described as follows: Raman. Conditions: reduced Trx-(SH)2, no protein ligand.
Data set [3] deals with T2, Cys35 (UniProt position 36, EWCGPCKMIAP). Briefly: Raman. As to conditions: reduced Trx-(SH)2, no protein ligand.
Data set [4] deals with T1, Cys32. The data set is described as follows: UV-vis. Conditions: reduced Trx-(SH)2, no protein ligand.
Data set [5] concerns the target T2, Cys35. The data set is described as follows: UV-vis. As to conditions: reduced Trx-(SH)2, no protein ligand.
In data set [6] the target is T1, Cys32. Briefly: fluorescence. As to conditions: reduced Trx-(SH)2, no protein ligand.
Data set [7] deals with T1, Cys32. Briefly: chemical modification. Conditions: reduced Trx-(SH)2, no protein ligand.
Data set [8] addresses T2, Cys35. The data set is described as follows: chemical modification. As to conditions: reduced Trx-(SH)2, no protein ligand.
Data set [9] addresses Cys32 (UniProt position 33, FWAEWCPYCKM). Conditions: reduced variant.

One may read the pKa as the negative logarithm of the acid dissociation constant. “Thioredoxin 1 (EcTrx) (Escherichia coli)”: the pKa in data set [1] was 7.4 and 7.0-7.1 and 7.5 or 9.2; in [2], 7.1; in data set [3], 7.9; in data set [4] it was 9-10; in data set [5], 9-10; in [6] it was 6.28. The pKa in data set [7] is 6.7; in data set [8], 9.0.
As to “Thioredoxin 1, glutaredoxin-like active-site variant (Grx-like EcTrx, CPYC) (Escherichia coli; G33P;P34Y)”, the pKa in [9] is 5.9.
